From PMC8811898, “Structural Insights into Methylated DNA Recognition by the Methyl-CpG Binding Domain of MBD6 from Arabidopsis thaliana”
Changes are numbered by the printed parent chain.

Tests used:
[1] = target: T1, AtMBD6 MBD domain S100R (Arabidopsis thaliana, UniProt Q9LTJ1 78-140, S100R); assay: NMR titration (1H-15N HSQC); slow exchange, increased affinity vs WT; no reliable Kd from NMR, ITC or FP; NMR: 20 mM Na phosphate pH 6.5, 150 mM NaCl, 5% D2O, 20 C; EMSA: 25 mM Tris, 25 mM boric acid, 150 mM NaCl, 5% glycerol, 1 mM DTT, 4 C, 30 min; details: protein: recombinant; tags: GST removed by HRV3C; N-terminal GPLGS remains; blunt; self-complementary
T1 sequence: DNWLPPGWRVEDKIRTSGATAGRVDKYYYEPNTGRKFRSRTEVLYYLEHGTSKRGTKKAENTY

[2] = target: T2, AtMBD6 MBD domain WT (Arabidopsis thaliana, UniProt Q9LTJ1 78-140); assay: NMR titration (1H-15N HSQC); 20 mM Na phosphate pH 6.5, 150 mM NaCl, 20 C; two-state fit; NMR: 20 mM Na phosphate pH 6.5, 150 mM NaCl, 5% D2O, 20 C; EMSA: 25 mM Tris, 25 mM boric acid, 150 mM NaCl, 5% glycerol, 1 mM DTT, 4 C, 30 min; details: protein: recombinant; tags: GST removed by HRV3C; N-terminal GPLGS remains; blunt; self-complementary
T2 sequence: T1 sequence with R23S

B1: MG (dsDNA)
DNA 1: GGTATGCGCATACC
DNA 2: GGTATGCGCATACC
modifications: 5-methylcytosine at position 7 of both strands (symmetric methyl-CpG)
- binding result [1]: binds
- Kd [2]: 40.2 ± 0.5 µM
